Data as given in the supplement of paper PMC9170038.

Test system: K4 kissing-loop RNA reporter
Experiment: apparent KD of K4 kissing-loop reporter; higher = weaker reporter binding
Details: Eterna round: R107
Procedure: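 RNA-MaP round R107: designed RNA switches with theophylline, tryptophan, arginine or FMN aptamers are transcribed on-chip within common flanks. They are titrated with a labelled K4 kissing-loop RNA reporter in RNA-MaP buffer (100 mM Tris pH 7.5, 80 mM KCl, 4 mM MgCl2), without ligand or with the indicated ligand. Median apparent KD per design.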

[1] = input ligand: theophylline 20 uM
[2] = input ligand: tryptophan 2.4 mM
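Further: bound reporter read as fluorescence of individual clusters on recovered sequencing chips by microscopy, with normalized cluster intensities fitted with a binding model.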

Row | Sequence | apparent KD of K4 kissing-loop reporter (input ligand: FMN 200 uM) [nM] | apparent KD of K4 kissing-loop reporter (input ligand: arginine 13.2 mM) [nM] | apparent KD of K4 kissing-loop reporter (input ligand: none) [nM] | apparent KD of K4 kissing-loop reporter [1] [nM] | apparent KD of K4 kissing-loop reporter [2] [nM]
1 | UAAGAGGACCACUGCAAGAGUCCUCGAAUACGAGGACCGGUACGGCCGCCACUCGAUAAUUUGCAGUGAUGUUGCAAGUAAGAAU [BrourdMod 5 - Jieux - Same State Tryptophan A] | 115 | 167 | 130 | 177 | 54.4
2 | UAAGAUAUAAGGGAUACCAGCCAUAAGGAAAGUGUGAUGAGUGAUGUUCUGACAAGCCAAGGCCCUUGGCAGCUUUAAUAGCAUC [Theophylline B Same State; Euphoria Solution] | 303 | 198 | 471 | 263 | 235
3 | UAAGCUCUGACGGCCGCCACUGCACGUGAAUCAGUGGUGGCUAACAUGAGUGAUGUUCAUGUAAGCAGGACCGGGUCAGAGCUAA [KL-XTryp-B14 #analogue] | 112 | 89.7 | 93.4 | 93.6 | 109
4 | UAAUAAUAAUGAUAAUAAUAAAGUGGUGGACGAGGACCGGUACGGCCGCCACUCGAAAAUGCAGUGAUGUUGUAAUACAAAUAAU [Exclusion - Tryptophan A (Freestyle 1)] | 110 | 203 | 137 | 200 | 86.6
5 | UAAUAUAAUCUGUCGUUUACAAUAUUUAGUCAGGAUAUCGUAUAUUCGAGAAGGGACACUAUCUAGUGAUGUUAGAUAUUUCUUU [JR_ExcFMNA_Sub014] | 47.9 | 78.1 | 55.9 | 67 | 51.9
6 | UAAUAUACGAGUGAUGUUCGUUAUUUAUCAGAGGAUAUGCUUAAAUGCAGAAGGCUGUUUUUCUAAUUGAUAUUAAAUUUUUUUA [JR_Nu_ExcFMNA_Sub028] | 77.2 | 90.1 | 74 | 89.7 | 63.3
7 | UAAUCCUAGUGAUAAUAAUCAAGUGGUGGACGAGGACCGGUACGGCCGCCACUCGAAAAUGCAGUGAUGUUGUAAUCCGGAUAAU [Exclusion - Tryptophan A (Freestyle 4)] | 627 | 701 | 878 | 771 | 581
8 | UAAUCCUAGUGAUCCUUAUCAAGUGGUGGGCGAGGACCGGUACGGCCGCCACUCGAAUAUGCAGUGAUGUUGUAAUCCGGAUAAU [Exclusion - Tryptophan A (Freestyle 9)] | 568 | 741 | 919 | 750 | 440
9 | UAAUUGCAGUGAUGUUGCAAAUGUCCUGACUAGGAUAUCAGGAAACUGAGAAGGAGUCCCUUCUAUUGCAACAAGAAGGAGGAUA [KL-SSFMN-A14] | 312 | 300 | 347 | 338 | 287
10 | UAAUUUAUGUCUUUAAUAUAAUAAUCAGAUACCAGUGAUUAAUGACACCCUUGGCAGCUGUAUAGAGUGAUGUUCUUAUGCUUAA [JR_ExcTheophyA_Sub010] | 245 | 316 | 288 | 364 | 179
11 | UACCCGUGCUACUCCAUCCAUGCCACACCGCGAGGACCGGUACGGCCGCCACUCGUCGGAAAGUGAUGUUUUCAAACAAAGUUGC | 151 | 93.4 | 142 | 292 | 76.9
12 | UACCUGCUGUCAGGAUAUGAGUGCAGUGAUGUUGCACUCAACGUAACCAUCUUGAAAUACAAACACUCAGAAGGGACGCACGAAG [Isattema] | 183 | 95.9 | 140 | 167 | 191
13 | UACGCUGCCUGAGGAUAUAGAAACGAGUGAUGUUCGUGGAUAAGAGCCAGUGAUGUUGGGUUAUUUCUAGAAGGCAGGUAAAGUA [Exclusion FMN B GF6] | 106 | 89.1 | 102 | 95.8 | 100
14 | UACUAUAGUGAUGUUAUAGAUAAAACAGAUACCAGUGUUACAUAACACCCUUGGCAGCUGAAAAGGGAAAGUAUAAAUGUGUAUU [AstrosSSTHe-A#1newdesignED] | 156 | 127 | 133 | 125 | 129
15 | UACUAUAUUCUGUCGUUUUUAUUAGUUUGUCAGGAUAUCGUUUAUUCGAGAAGGGACACUGUCUAGUGAUGUUAGACAUUUCUUU [#04 K4 FMN A Exclusion] | 68.3 | 90.7 | 88.5 | 87 | 75.5
16 | UAGAGGAGACUCUAAUUCCUUAAGUCCGAAGGAGCGACCCAAUGGUCAGGUAGGUCGCGGACAAUCCUAGUGAUGUUAGGAUCUG [Arg A SS t5a] | 141 | 136 | 160 | 170 | 129
17 | UAGAUGUUGUAAGAUAUUGAUAGUCGGGAAGGAGCGCUCACAAUAGCAGGUAGGUCGCCCGACAGUGUUAGGAGUGAUGUUCCUU [7.)] | 92.9 | 119 | 97.9 | 121 | 83.5
18 | UAGCGGGCGAUUCGACGUGCGUCCAGUCAUCGAGGACCGGUACGGCCGCCACUCGCCGGAGUGAUGUUCCGGUACGUCAUAUAAU [theeternabot_sameState_KL_Trp_A_35] | 406 | 358 | 398 | 422 | 197
19 | UAGCGGUGGAGGCCACCGCUAUUCUGAGAAGGAGCGCAGAUGACUGCAGGUAGGUCGCUUAGAGCUUGCAGUGAUGUUGCAAGUU [Araatlaqu] | 191 | 144 | 191 | 223 | 177
20 | UAGUCAUACAGAGGAUAUCGUAUGAGUGAUGUUCAAGUGCGUACAUCAACUUGAUGUACAGAUAGACGAGAAGGCUGUAUGACUA [FMB B SS t6] | 303 | 382 | 487 | 449 | 492
21 | UAGUCCUAGUGAUGGUCAUCACGUGGCGGGCGAGGACCGGUACGGCCGCCACUCGACUUUGCAGUGAUGUUGCAAACCGGACAAU [Exclusion - Tryptophan A (Freestyle 20)] | 144 | 134 | 132 | 136 | 191
22 | UAGUCCUAGUGAUGGUUAUCACGUGGUGGGCGAGGACCGGUACGGCCGCCACUCGACUUUGCAGUGAUGUUGCAAACCGGACAAU [Exclusion - Tryptophan A (Freestyle 18)] | 228 | 278 | 237 | 287 | 237

Row | Sequence | apparent KD of K4 kissing-loop reporter (input ligand: FMN 200 uM) [nM] | apparent KD of K4 kissing-loop reporter (input ligand: arginine 13.2 mM) [nM] | apparent KD of K4 kissing-loop reporter (input ligand: none) [nM] | apparent KD of K4 kissing-loop reporter [1] [nM] | apparent KD of K4 kissing-loop reporter [2] [nM]
23 | UAGUGAAUAGAAGGAUAUUGAUAUGAAAGAUGCAGUGAUGUUGCCCGUAGCAGUCAGUAAUACGUGCAAGAAGGUCUGUGCGCGA [theeternabot_exclusion_KL_FMN_B_3] | 65.2 | 95.4 | 69.2 | 127 | 62.4
24 | UAGUGAUGCUAUGUUAGGUUUUUUAGGGAAGGAGCGCCAAAGAAGGCAGGUAGGUCGCCCUAUAUUCCCAGUGAUGUUGGGUAUU [Skye_Ex_AA] | 64.8 | 50.6 | 74.9 | 93.6 | 65.5
25 | UAGUGUCGCGCAGGAUAUACUGAUUGGAGUGAUGUUCCAAACAUGAACGUGAGACUUUUACAAGAAGUAGAAGGGCGUGAGACAU [Exclusion FMN B GF 21] | 276 | 320 | 405 | 393 | 404
26 | UAUAAUUCGGCGGCCGCCACUGACCAUAGCCUUCGAUGGCCAGUGAUGUUGGCCUCUGGCUCUAACAGGACCGGGCCGAAUUGCG [Aririmaus] | 228 | 179 | 260 | 277 | 135
27 | UAUACUAGACAAGAGAGAAUUCUCUCAAGAGAGGAUAUCCGAAUUCGGAGAAGGCUCUCUCAGUGAUGUUGGGUAUAGUCUAGAA [AK7 SS FMN A] | 260 | 222 | 323 | 389 | 299
28 | UAUAUACAUUUAUUAAUUAAAGGUUCAGAAGGAGCGUGAAUUAACACAGGUAGGUCGCUGAGCGAGUGAUGUUCGCUAUAUGGUA [JR_ExcArginiA_Sub005] | 66.3 | 72.6 | 70.5 | 87.1 | 55.7
29 | UAUCAGAUUACUGAUACCAGUCUAAAGACAGUGAUGUUGUCUGAUCGACCACGAUCAAAGGACCCUUGGCAGCAGUGUACUAUUC [#29 K4 Theophylline B Same State] | 197 | 203 | 192 | 188 | 199
30 | UAUCUUUGCUGAAGGAGCGAGCAUGUUGGAGUGAUGUUCCGAGCGAGUGAUGUUCGCAUAGCUCAGGUAGGUCGCAGUGGGAGGA [Same State Arginie B GF 16] | 129 | 111 | 147 | 164 | 135
31 | UAUGGUCCAUCAAGAGUAGUGAUGUUAUAACGAGGACCGGUACGGCCGCCACUCGAGGCCGUAAUACUCGAUCGGAUGCUGAGUG [theeternabot_exclusion_KL_Trp_A_28] | 815 | 819 | 1180 | 794 | 816
32 | UAUGUACGCGGGUAACGGUACAUCGAGGAAGGAGCGUGCGCAGGCACAGGUAGGUCGCCUCAGCGCACGAGUGAUGUUCGUGGGC [Rere] | 221 | 243 | 271 | 298 | 280
33 | UAUUAAUAAUUAUUCUAGUGAUGUUAGAUACGAGGACCGGUACGGCCGCCACUCGCUUAUUGGUUUAUAAAUUUUAUAUUAUUUA [JR_SSTryptoA_Sub017] | 185 | 207 | 186 | 208 | 164
34 | UAUUAAUAUUUUUCAGUGAUGUUAAUUGAUACCAGCCCGAAACCGGGCCCUUGGCAGCGAGUGAUGUUGGUUGUCAGCAUAAAUA [KL-XTheo-A13] | 860 | 596 | 836 | 676 | 667
35 | UAUUUAAUUUUUAAUUUUUAAAUUGCUGAUACCAGAGCCAAUUGGCUCCCUUGGCAGCGGAUCGAGUGAUGUUCGUAUAAUUUAA [AK1 SS Theophylline A] | 30.5 | 66.4 | 35 | 62.2 | 33.6
36 | UAUUUGAUGUCAGGAUAUCGUAUACGAGUGAUGUUCGUAUUUCUACUAUAGAUUAUUUAAAUUUUUCGAGAAGGGACAACAUUUA [#04 K4 FMN B Same State] | 151 | 93.3 | 115 | 140 | 122
37 | UCACGUGCCAGUGAUGUUGGCGUACGUGAUACCAGAACAAUAAAGUUCCCUUGGCAGCACAAAUAUGCCAAGUUAGAUGUAUGAU [Exclusion Theophylline A GF 3] | 121 | 118 | 123 | 119 | 113
38 | UCAUAUACCAGAAGGAGCGUGCAGGACGAAUUAAUCAUCGACCUUAGUGAUGUUAAGGACGCACAGGUAGGUCGCUGGUAUAUGA [Arg B SS t4] | 444 | 431 | 479 | 484 | 439
39 | UCCAAUAUUUAUUGAUCCGCCUCGCAUCAACGAGGACCGGUACGGCCGCCACUCGUGCCUAGGUAGUGAUGUUACUUAGUUUACU [theeternabot_sameState_KL_Trp_A_32] | 93.2 | 162 | 114 | 188 | 196
40 | UCCUAGGCUCGAAAGAGCCUAGGAUUAUCUCAGGAUAUCCGGAAACGGAGAAGGGAGAAACUAGUGAUGUUAGGGAUUCCCUAUU | 574 | 184 | 213 | 259 | 137
41 | UCCUAGGCUCGAAAGAGCCUAGGUAAGACUCAGGAUAUCUGGAAACAGAGAAGGGAGCUACUAGUGAUGUUAGGAAUUCCCAUUU | 116 | 94.7 | 89 | 76.2 | 85.1
42 | UCCUCGAAUCGACCUCGAAAGAGGAUGGAUACCAGUCUUGAUAAAGACCCUUGGCAGCCAGUGAUGUUGGAACGAGGUAAAUAAA [#SwitchBubble 19 #K4Late] | 531 | 365 | 571 | 535 | 359
43 | UCCUGCAAUCGCCCACGAAAGUGGAUUGAUACCAGAGUCGAAAGACUCCCUUGGCAGCGAGUGAUGUUCGAAGCAGGUAAAUAAA | 326 | 503 | 562 | 540 | 459
